B1: Interleukin-5 receptor subunit alpha (Homo sapiens), Q01344-2 (parent)
chain: MIIVAHVLLILLGATEILQADLLPDEKISLLPPVNFTIKVTGLAQVLLQWKPNPDQEQRNVNLEYQVKINAPKEDDYETRITESKCVTILHKGFSASVRTILQNDHSLLASSWASAELHAPPGSPGTSIVNLTCTTNTTEDNYSRLRSYQVSLHCTWLVGTDAPEDTQYFLYYRYGSWTEECQEYSKDTLGRNIACWFPRTFILSKGRDWLAVLVNGSSKHSAIRPFDQLFALHAIDQINPPLNVTAEIEGTRLSIQWEKPVSAFPIHCFDYEVKIHNTRNGYLQIEKLMTNAFISIIDDLSKYDVQVRAAVSSMCREAGLWSEWSQPIYVGFSR

Variants of: B1
Details: with il5_human IL5, P05113
Chain of il5_human IL5, P05113 (P05113 whole entry): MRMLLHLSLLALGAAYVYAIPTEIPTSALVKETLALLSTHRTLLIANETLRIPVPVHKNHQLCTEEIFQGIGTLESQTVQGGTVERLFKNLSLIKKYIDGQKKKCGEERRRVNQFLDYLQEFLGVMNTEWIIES
In the case of MIIVAHVLLILLGATEILQADLLPDEKISLLPPVNFTIKVTGLAQVLLQWKPNPDQEQRNVNLEYQVKINAPKEDDYETRITESKCVTILHKGFSASVRTILQNDHSLLASSWASAELHAPPGSPGTSIVNLTCTTNTTEDNYSRLRSYQVSLHCTWLVGTDAPEDTQYFLYYRYGSWTEECQEYSKDTLGRNIACWFPRTFALSKGRDWLAVLVNGSSKHSAIRPFDQLFALHAIDQINPPLNVTAEIEGTRLSIQWEKPVSAFPIHCFDYEVKIHNTRNGYLQIEKLMTNAFISIIDDLSKYDVQVRAAVSSMCREAGLWSEWSQPIYVGFSR [I203A], the “effect of a mutation on the interaction” value is reported as “decreasing interaction”.
In the case of MIIVAHVLLILLGATEILQADLLPDEKISLLPPVNFTIKVTGLAQVLLQWKPNPDQEQRNVNLEYQVKINAPKEDDYETRITESKCVTILHKGFSASVRTILQNDHSLLASSWASAELHAPPGSPGTSIVNLTCTTNTTEDNYSRLRSYQVSLHCTWLVGTDAPEDTQYFLYYRYGSATEECQEYSKDTLGRNIACWFPRTFILSKGRDWLAVLVNGSSKHSAIRPFDQLFALHAIDQINPPLNVTAEIEGTRLSIQWEKPVSAFPIHCFDYEVKIHNTRNGYLQIEKLMTNAFISIIDDLSKYDVQVRAAVSSMCREAGLWSEWSQPIYVGFSR [W178A], the “effect of a mutation on the interaction” value is reported as “decreasing interaction”.
MIIVAHVLLILLGATEILQADLLPDEKISLLPPVNFTIKVTGAAQVLLQWKPNPDQEQRNVNLEYQVKINAPKEDDYETRITESKCVTILHKGFSASVRTILQNDHSLLASSWASAELHAPPGSPGTSIVNLTCTTNTTEDNYSRLRSYQVSLHCTWLVGTDAPEDTQYFLYYRYGSWTEECQEYSKDTLGRNIACWFPRTFILSKGRDWLAVLVNGSSKHSAIRPFDQLFALHAIDQINPPLNVTAEIEGTRLSIQWEKPVSAFPIHCFDYEVKIHNTRNGYLQIEKLMTNAFISIIDDLSKYDVQVRAAVSSMCREAGLWSEWSQPIYVGFSR [L43A] was tested, and the “effect of a mutation on the interaction” value was “disrupting interaction”.
With MIIVAHVLLILLGATEILQADLLPDEKISLLPPVNFTIKVTGLAQVLLQWKPNPDQEQRNVNLEYQVKINAPKEDDYETAITESKCVTILHKGFSASVRTILQNDHSLLASSWASAELHAPPGSPGTSIVNLTCTTNTTEDNYSRLRSYQVSLHCTWLVGTDAPEDTQYFLYYRYGSWTEECQEYSKDTLGRNIACWFPRTFILSKGRDWLAVLVNGSSKHSAIRPFDQLFALHAIDQINPPLNVTAEIEGTRLSIQWEKPVSAFPIHCFDYEVKIHNTRNGYLQIEKLMTNAFISIIDDLSKYDVQVRAAVSSMCREAGLWSEWSQPIYVGFSR [R80A] the “effect of a mutation on the interaction” value was “decreasing interaction”.
In the case of MIIVAHVLLILLGATEILQADLLPDEKISLLPPVNFTIKVTGLAQVLLQWKPNPDQEQRNVNLEYQVKINAPKEEDYETRITESKCVTILHKGFSASVRTILQNDHSLLASSWASAELHAPPGSPGTSIVNLTCTTNTTEDNYSRLRSYQVSLHCTWLVGTDAPEDTQYFLYYRYGSWTEECQEYSKDTLGRNIACWFPRTFILSKGRDWLAVLVNGSSKHSAIRPFDQLFALHAIDQINPPLNVTAEIEGTRLSIQWEKPVSAFPIHCFDYEVKIHNTRNGYLQIEKLMTNAFISIIDDLSKYDVQVRAAVSSMCREAGLWSEWSQPIYVGFSR [D75E], the “effect of a mutation on the interaction” value is reported as “decreasing interaction”.
For MIIVAHVLLILLGATEILQADLLPDEKISLLPPVNFTIKVTGLAQVLLQWKPNPDQEQRNVNLEYQVKINAPKEDDAETRITESKCVTILHKGFSASVRTILQNDHSLLASSWASAELHAPPGSPGTSIVNLTCTTNTTEDNYSRLRSYQVSLHCTWLVGTDAPEDTQYFLYYRYGSWTEECQEYSKDTLGRNIACWFPRTFILSKGRDWLAVLVNGSSKHSAIRPFDQLFALHAIDQINPPLNVTAEIEGTRLSIQWEKPVSAFPIHCFDYEVKIHNTRNGYLQIEKLMTNAFISIIDDLSKYDVQVRAAVSSMCREAGLWSEWSQPIYVGFSR [Y77A], the “effect of a mutation on the interaction” value was “decreasing interaction”.
With MIIVAHVLLILLGATEILQADLLPDEKISLLPPVNFTIKVTGLAQVLLQWKPNPDQEQRNVNLEYQVKINAPKEDDYETRITESKCVTALHKGFSASVRTILQNDHSLLASSWASAELHAPPGSPGTSIVNLTCTTNTTEDNYSRLRSYQVSLHCTWLVGTDAPEDTQYFLYYRYGSWTEECQEYSKDTLGRNIACWFPRTFILSKGRDWLAVLVNGSSKHSAIRPFDQLFALHAIDQINPPLNVTAEIEGTRLSIQWEKPVSAFPIHCFDYEVKIHNTRNGYLQIEKLMTNAFISIIDDLSKYDVQVRAAVSSMCREAGLWSEWSQPIYVGFSR [I89A] the “effect of a mutation on the interaction” value was “decreasing interaction”.
In the case of MIIVAHVLLILLGATEILQADLLPDEKISLLPPVNFTIKVTGLAQVLLQWKPNPDQEQRNVNLEYQVKINAPKEDDYETRITEAKCVTILHKGFSASVRTILQNDHSLLASSWASAELHAPPGSPGTSIVNLTCTTNTTEDNYSRLRSYQVSLHCTWLVGTDAPEDTQYFLYYRYGSWTEECQEYSKDTLGRNIACWFPRTFILSKGRDWLAVLVNGSSKHSAIRPFDQLFALHAIDQINPPLNVTAEIEGTRLSIQWEKPVSAFPIHCFDYEVKIHNTRNGYLQIEKLMTNAFISIIDDLSKYDVQVRAAVSSMCREAGLWSEWSQPIYVGFSR [S84A], the “effect of a mutation on the interaction” value is reported as “decreasing interaction”.
In the case of MIIVAHVLLILLGATEILQADLLPDEKISLLPPVNFTIKVTGLAQVLLQWKPNPDQEQRNVNLEYQVKINAPKEDDYPTRITESKCVTILHKGFSASVRTILQNDHSLLASSWASAELHAPPGSPGTSIVNLTCTTNTTEDNYSRLRSYQVSLHCTWLVGTDAPEDTQYFLYYRYGSWTEECQEYSKDTLGRNIACWFPRTFILSKGRDWLAVLVNGSSKHSAIRPFDQLFALHAIDQINPPLNVTAEIEGTRLSIQWEKPVSAFPIHCFDYEVKIHNTRNGYLQIEKLMTNAFISIIDDLSKYDVQVRAAVSSMCREAGLWSEWSQPIYVGFSR [E78P], the “effect of a mutation on the interaction” value is reported as “disrupting interaction”.
